Laboratory results reported in patent publication US20250276043A1, “Pharmaceutical Composition Containing GLP-1 Compound” (Gan & Lee Pharmaceuticals Co., Ltd., priority 2021, published 2025).

Assays:
[1] = system: Kkay mice; assay: Long-term pharmacodynamic study in type 2 diabetes Kkay mice (Example 18); assay type: in vivo; settings: subcutaneous, 100 and 300 μg/kg; for Reduction in HbA1c (FIG. 5c): 48 hours after the final administration; for Hypoglycemic effect, blood glucose and AUC (FIGS. 5a-5b): once every 2 days, 16 doses
Procedure: Compound 5 from Example 5 and Compound 2 from Example 2 were tested on type 2 diabetes Kkay mice. The mice were administered different doses of Compound 5 and Compound 2, at 100 and 300 μg/kg, respectively. The effects of the GLP-1 compounds in the GLP-1 pharmaceutical composition of the present invention on reducing blood glucose levels and HbA1c were measured.
Male Kkay mice, 12-14 weeks old, were housed in suitable cages under barrier conditions with free access to standard food and purified water. The environmental conditions were controlled at a relative humidity of 40%-60% and a temperature of 22° C.-24° C. After an adaptation period of 1-2 weeks, the mice were used for the experiment.
Basal blood glucose levels were assessed on the day of the experiment, and the mice were weighed. Based on random blood glucose and body weight, the diabetic mice were divided into a solvent group or a treatment group. The mice in the treatment group received subcutaneous injections of the GLP-1 compounds at doses of 100 and 300 μg/kg. The solvent consisted of propylene glycol (14 mg/ml), phenol (5.5 mg/ml), and disodium hydrogen phosphate (1.133 mg/ml) at pH 7.4.
Subcutaneous administration was performed at the nape of the neck (50 μl/10 g body weight). The GLP-1 compound in the GLP-1 pharmaceutical composition of the present invention or the solvent were administered at approximately 10:00 am (time 0), once every 2 days for a total of 16 doses. Blood glucose levels in the mice were evaluated at 3 hours, 6 hours, 1 day, and 2 days after the initial administration. HbA1c was measured 48 hours after the final administration using EDTA anticoagulant.

[2] = Chemical stability: related substances by HPLC after storage (Example 17); assay type: physicochemical
Procedure: The content of related impurities was determined using high-performance liquid chromatography (HPLC) on a Waters Kromasil 100-3.5-C8 (4.6*250 mm) column. The column temperature was set at 35° C., and the sample chamber temperature was set at 5° C. The elution was performed at a flow rate of 1.0 ml/min. The eluent consisted of the following components: • Phase A: 90 mM potassium dihydrogen phosphate and 10% acetonitrile (v/v), pH 2.4 • Phase B: 75% acetonitrile (v/v)
The gradient was as follows: linear change of 75%/25% A/B to 55%/45% A/B from 0 to 5 minutes, linear change from 5 to 12 minutes to 50%/50% A/B, linear change from 12 to 42 minutes to 40%/60% A/B, linear change from 42 to 60 minutes to 10%/90% A/B, linear change from 60 to 61 minutes to 75%/25% A/B, and steady gradient of 75%/25% A/B from 61 to 70 minutes.
Detection wavelength was set at 214 nm, flow rate at 1.0 ml/min, and injection volume at 15 μl.

[3] = oral semaglutide tablets (RYBELSUS) with SNAC, clinical studies; cited from earlier work

N-ε^26-[2-(2-[2-(2-[2-(2-[4-(21-carboxyheneicosanoylamino)-4(S) -carboxybutanoylamino]ethoxy)ethoxy]acetylamino)ethoxy]ethoxy)acetyl][Gly8, Arg34]GLP-1-(7-37) peptide [Compound 5]
Reduction in HbA1c (FIG. 5c) [1]: significant reduction in HbA1c
Hypoglycemic effect, blood glucose and AUC (FIGS. 5a-5b) [1]: significant hypoglycemic effects
Maximum individual impurity % ([2]; 25° C./60% RH, 15 month): 0.97%
Purity of compound 5 % ([2]; 25° C./60% RH, 15 month): 96.14%
Total impurities % ([2]; 25° C./60% RH, 15 month): 3.86%
Maximum individual impurity % ([2]; 30° C./65% RH, 1 month): 0.76%
Purity of compound 5 % ([2]; 30° C./65% RH, 1 month): 96.85%
Total impurities % ([2]; 30° C./65% RH, 1 month): 3.15%
Maximum individual impurity % ([2]; 30° C./65% RH, 2 month): 1.03%
Purity of compound 5 % ([2]; 30° C./65% RH, 2 month): 96.67%
Total impurities % ([2]; 30° C./65% RH, 2 month): 3.33%
Maximum individual impurity % ([2]; 30° C./65% RH, 3 month): 0.93%
Purity of compound 5 % ([2]; 30° C./65% RH, 3 month): 95.19%
Total impurities % ([2]; 30° C./65% RH, 3 month): 4.81%
Maximum individual impurity % ([2]; 30° C./65% RH, time 0): 0.73%
Purity of compound 5 % ([2]; 30° C./65% RH, time 0): 96.5%
Total impurities % ([2]; 30° C./65% RH, time 0): 3.5%

N-ε^26-[2-(2-[2-(4-[19-carboxynonadecanoylamino]-4(S) -carboxybutanoylamino)ethoxy]ethoxy)acetyl][Gly8, Arg34]GLP-1-(7-37) peptide [Compound 2]
Reduction in HbA1c (FIG. 5c) [1]: significant reduction in HbA1c
Hypoglycemic effect, blood glucose and AUC (FIGS. 5a-5b) [1]: significant hypoglycemic effects

semaglutide
Bioavailability [3]: around 1%
